Patent US20190367617A1 (AMPSOURCE BIOPHARMA SHANGHAI, published 2019)

T1: human ICOS/Fc (Sino Biological Inc.) (human, UniProt Q9Y6W8 21-141, limits assumed)
T1 construct: Bought protein; not shown: Fc
T1 sequence (looked up): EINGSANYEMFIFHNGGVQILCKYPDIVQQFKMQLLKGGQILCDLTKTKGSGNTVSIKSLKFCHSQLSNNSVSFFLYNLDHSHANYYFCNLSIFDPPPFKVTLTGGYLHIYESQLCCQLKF

T2: mouse PD-1/His (Sino Biological Inc.) (mouse, UniProt Q02242 25-167)
T2 construct: Bought protein; not shown: His tag
T2 sequence (looked up): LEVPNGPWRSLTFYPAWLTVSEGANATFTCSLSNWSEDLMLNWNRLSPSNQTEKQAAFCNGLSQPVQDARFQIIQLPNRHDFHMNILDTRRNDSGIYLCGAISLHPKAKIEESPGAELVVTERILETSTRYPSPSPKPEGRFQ

T3: mouse PD-1 (Sino Biological Inc., Beijing, China) (mouse, UniProt Q02242 25-167, limits assumed)
T3 sequence (looked up): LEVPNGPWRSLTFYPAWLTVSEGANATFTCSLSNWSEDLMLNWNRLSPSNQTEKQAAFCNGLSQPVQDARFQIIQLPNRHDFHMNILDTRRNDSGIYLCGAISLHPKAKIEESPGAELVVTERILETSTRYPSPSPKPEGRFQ


Columns and labels:
[1] = biological target: T4, cynomolgus monkey PD-1/Fc (Sino Biological Inc.) (cynomolgus monkey, UniProt B0LAJ3 25-170); assay: indirect ELISA, cynomolgus monkey PD-1/Fc coated at 0.1 µg/mL, HRP goat anti-mouse IgG
T4 construct: Bought protein
T4 sequence (B0LAJ3 entry or part of it limits assumed): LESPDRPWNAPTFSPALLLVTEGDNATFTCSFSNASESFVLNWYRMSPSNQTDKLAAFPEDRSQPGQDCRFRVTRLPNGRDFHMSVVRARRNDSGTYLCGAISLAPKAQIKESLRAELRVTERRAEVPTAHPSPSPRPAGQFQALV
Description: (§1) Human PD-1/His, human ICOS/Fc, human CTLA4/His, human CD28/Fc, cynomolgus monkey PD-1/Fc, and mouse PD-1/His (all from Sino Biological Inc., Beijing, China) were diluted with PBS buffer to 0.1 μg/mL, and added to the 96-well plate at a volume of 100 μL/well and placed at 16° C. for 16 to 20 h. The PBS buffer was aspirated from the 96-well plate, and the plate was washed once with PBST (PBS containing 0.05% Tween 20, pH 7.4). 200 μL of PBST/1% no-fat milk was added to each well and incubated at room temperature for 1 h for blocking. The blocking solution was removed and the plate was washed 3 times with PBST. 100 μL of the anti-PD-1 antibody to be tested was added to each well, and incubated at room temperature for 1.5 h. The reaction solution was removed and the plate was washed 3 times with PBST. 50 μL of the HRP-labeled goat anti-mouse IgG secondary antibody (The Jackson Laboratory) diluted (dilution ratio 1:4000) was added to each well. Incubated at room temperature for 1 h. The plate was washed 3 times with PBST. 100 μL of the TMB was added to each well and incubated at room temperature for 5-10 min 50 μL of 0.2 M sulfuric acid was added to each well to terminate the reaction. Absorbance values were read at dual wavelengths of 450/620 nm in a microplate reader.

[2] = biological target: T1, human ICOS/Fc (Sino Biological Inc.); assay: indirect ELISA, human ICOS/Fc coated at 0.1 µg/mL, HRP goat anti-mouse IgG
Description: as §1

[3] = biological target: T5, human CTLA4/His (Sino Biological Inc.) (human, UniProt P16410 36-162, limits assumed); assay: indirect ELISA, human CTLA4/His coated at 0.1 µg/mL, HRP goat anti-mouse IgG
T5 construct: Bought protein; not shown: His tag
T5 sequence (P16410 36-162 limits assumed): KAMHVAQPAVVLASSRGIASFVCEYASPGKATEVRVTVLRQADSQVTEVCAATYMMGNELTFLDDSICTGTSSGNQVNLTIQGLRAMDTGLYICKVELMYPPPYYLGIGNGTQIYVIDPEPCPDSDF
Description: as §1

[4] = biological target: T2, mouse PD-1/His (Sino Biological Inc.); assay: indirect ELISA, mouse PD-1/His coated at 0.1 µg/mL, HRP goat anti-mouse IgG
Description: as §1

[5] = biological target: T6, human PD-1/His (Sino Biological Inc.) (human, UniProt Q15116 25-170); assay: affinity and kinetic constants; method not restated, taken as BLI of Example 3.4
T6 construct: extracellular domain; Bought protein; also called extracellular domain fragment of PD-1 protein containing His tag; not shown: His tag
T6 sequence (Q15116 25-170): as the sequence (B0LAJ3 entry or part of it limits assumed) above, with E2D, A10P, L19V, A35T, R75Q, A144T counted along it

[6] = biological target: T7, Human PD-1 (Sino Biological Inc., Beijing, China) (human, UniProt Q15116 25-167); assay: competitive ELISA, human PD-1 coated at 0.1 µg/mL, competitor Opdivo-HRP
T7 construct: also called hPD-1
T7 sequence (Q15116 25-167 limits assumed): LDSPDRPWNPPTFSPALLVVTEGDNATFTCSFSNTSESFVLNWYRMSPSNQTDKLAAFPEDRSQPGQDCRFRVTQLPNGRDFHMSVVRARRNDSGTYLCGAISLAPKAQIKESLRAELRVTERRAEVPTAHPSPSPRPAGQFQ
Description: (§2) Human PD-1 (Sino Biological Inc., Beijing, China) was diluted to 0.1 μg/mL with PBS buffer and added to the 96-well plate at a volume of 100 μL/well and allowed to stand overnight at room temperature. The coating solution was removed, 200 μL of PBST/1% no-fat milk was added to each well and incubated at room temperature for 1 h for blocking. The blocking solution was removed and the plate was washed 3 times with PBST.

[7] = biological target: T7, Human PD-1 (Sino Biological Inc., …); assay: indirect ELISA, human PD-1 coated at 0.1 µg/mL, HRP goat anti-human IgG
Excerpt: (§3) The HRP-labeled goat anti-human IgG antibody (The Jackson Laboratory) was used as the secondary antibody, and the detailed assay procedure was as described in Example 2.

[8] = biological target: T7, Human PD-1 (Sino Biological Inc., …); assay: competitive ELISA, human PD-1 coated at 0.1 µg/mL, competitor Keytruda-HRP
Description: as §2

[9] = biological target: T3, mouse PD-1 (Sino Biological Inc., …); assay: indirect ELISA, mouse PD-1 coated, HRP goat anti-human IgG
Excerpt: as §3

[10] = biological target: T8, PD-1 expressed on the surface of activated human T cells (human, UniProt Q15116 25-288); assay: flow cytometry on activated human T cells, FITC goat anti-human IgG
T8 construct: whole, on cells
T8 sequence (Q15116 25-288): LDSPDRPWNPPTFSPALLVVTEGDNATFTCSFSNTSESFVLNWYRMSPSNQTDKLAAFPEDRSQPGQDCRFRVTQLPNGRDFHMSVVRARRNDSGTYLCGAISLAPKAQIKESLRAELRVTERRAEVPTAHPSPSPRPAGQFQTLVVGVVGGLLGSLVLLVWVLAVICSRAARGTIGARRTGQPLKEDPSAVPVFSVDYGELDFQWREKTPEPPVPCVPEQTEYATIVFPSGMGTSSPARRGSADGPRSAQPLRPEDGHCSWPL
Description: Fresh mononuclear cells were obtained from human peripheral blood by density gradient centrifugation (Lymphoprep™, human lymphocyte separation solution, […]), and high purity T lymphocytes were obtained using T cell isolation reagents ([…]). The T lymphocytes were stimulated with 5 μg/mL of the anti-CD3 antibody for 48 h, and cultured for 7 days after addition of 250 IU/mL of human IL-2. A large number of activated T lymphocytes were then obtained. […] The FITC signals were detected by flow cytometry.

[11] = biological target: T9, PD-1 overexpressed on the surface of CHO cells (Homo sapiens (Human), UniProt Q15116 25-288); assay: flow cytometry on PD-1-overexpressing CHO cells, FITC goat anti-human IgG
T9 construct: also called PD-1-overexpressing CHO cells
T9 sequence (Q15116 25-288 limits assumed): as the sequence (Q15116 25-288) above
Excerpt: FACS (fluorescence activated cell sorting) is a test used for detection of the binding between proteins and cells. The test was used to detect the binding activity of the humanized anti-PD-1 antibodies of the present invention to native PD-1 expressed on the cell surface. The cells used in the test were PD-1-overexpressing CHO cells.

[12] = biological target: T6, human PD-1/His (Sino Biological Inc.); assay: competitive ELISA: PD-1/His coated at 2 µg/mL, blocks biotin-labeled PD-L1/Fc
Description: The extracellular domain fragment of PD-1 protein containing His tag was coated onto the 96-well ELISA plate.
PD-1/His was diluted to 2 μg/mL with PBS buffer, pH 7.2, and added to the 96 well ELISA plate at 100 μL per well and incubated with shaking at room temperature for 1 h. The PBS buffer was aspirated from the 96-well ELISA plate. 200 μL of PBST(PBS containing 0.05% Tween 20, pH 7.4)/1% no-fat milk was added to each well and incubated at room temperature for 1 h for blocking. The plate was washed 3 times with PBST. 50 μL of the anti-PD-1 antibody to be tested was added to each well, which was diluted with the blocking solution to an appropriate concentration. […] Incubating at room temperature for 1 h. The plate was washed 3 times with PBST. 100 μL of SA-Avidin-HRP (HRP-labeled streptavidin) diluted at 1:250 ratio with the blocking solution was added to each well, and incubated at room temperature for 1 h. Washing the plate 3 times with PBST. 100 μL of the TMB substrate solution was added to each well and incubated at room temperature for 5-10 min. Adding 50 μL of 0.2 M sulfuric acid to each well to terminate the reaction. The absorbance values were read at 450 nm in a microplate reader.

Binder | binding result [1] | binding result [2] | binding result [3] | binding result [4] | Kd [5] [nM] | koff [5] [s⁻¹] | kon [5] [M⁻¹ s⁻¹] | IC50 (read off the curve) [6] [µg/mL] | EC50 (read off the curve) [7] [µg/mL] | IC50 (read off the curve) [8] [µg/mL] | binding result [9] | EC50 (read off the curve) [10] [nM] | EC50 (read off the curve) [11] [nM] | IC50 [12] [nM]
murine monoclonal antibody AB12N1 (antibody, mouse IgG1, V domains shown, subclass identified as mouse IgG1 (Kappa), purified from hybridoma supernatant; also called antibody of hybridoma clone #22) VH: QVQLVESGGGVVQPGRSLRLDCKASGITFSNSGMHWVRQAPGKGLEWVAVIWYDGSKRYYADSVKGRFTISRDNSKNTLFLQMNSLRAEDTAVYYCATNDDYWGQGTLVTV VL: EIVLTQSPATLSLSPGERATLSCRASQSVSSYLAWYQQKPGQAPRLLIYDASNRATGIPARFSGSGSGTDFTLTISSLEPEDFAVYYCQQSSNWPRTFGQGTKVEIK | no binding (tested: 10 µg/mL) | no binding (tested: 10 µg/mL) | no binding (tested: 10 µg/mL) | no binding (tested: 10 µg/mL) |  |  |  |  |  |  |  |  |  | 
humanized antibody AB12N3 (antibody, V domains shown) VH: QVQLVESGGGVVQPGRSLRLSCAASGITFSNSGMHWVRQAPGKGLEWVAVWYDGSKRYYADSVKGRFTISRDNSKNTLYLQMNSLRAEDTAVYYCATNDDYWGQGTLVTV VL: EIVLTQSPATLSLSPGERATLSCRASQSVSSYLAWYQQKPGQAPRLLIYDASNRATGIPARFSGSGSGTDFTLTISSLEPEDFAVYYCQQSSNWPRTFGQGTKVEIK |  |  |  |  | 0.365 | 2.28e-05 | 62400 |  |  |  |  |  |  | 
humanized antibody AB12N5 (antibody, V domains shown) VH: QVQLVESGGGVVQPGRSLRLSCAASGITFSNSGMHWVRQAPGKGLEWVAVWYDGSKRYYADSVKGRFTISRDNSKNTLFLQMNSLRAEDTAVYYCATNDDYWGQGTLVTV VL: EIVLTQSPATLSLSPGERATLSCRASQSVSSYLAWYQQKPGQAPRLLIYDASNRATGIPARFSGSGSGTDFTLTISSLEPEDFAVYYCQQSSNWPRTFGQGTKVEIK |  |  |  |  | 0.414 | 2.56e-05 | 61900 |  |  |  |  |  |  | 

The remaining lines, values ahead:

binding result [1] | binding result [2] | binding result [3] | binding result [4] | Kd [5] [nM] | koff [5] [s⁻¹] | kon [5] [M⁻¹ s⁻¹] | IC50 (read off the curve) [6] [µg/mL] | EC50 (read off the curve) [7] [µg/mL] | IC50 (read off the curve) [8] [µg/mL] | binding result [9] | EC50 (read off the curve) [10] [nM] | EC50 (read off the curve) [11] [nM] | IC50 [12] [nM] | Binder
 |  |  |  | 0.378 | 2.41e-05 | 63700 |  |  |  |  |  |  |  | humanized antibody AB12N4 (antibody, V domains shown) VH: QVQLVESGGGVVQPGRSLRLSCAASGITFSNSGMHWVRQAPGKGLEWVAVIWYDGSKRYYADSVKGRFTISRDNSKNTLYLQMNSLRAEDTAVYYCATNDDYWGQGTLVTV VL: EIVLTQSPATLSLSPGERATLSCRASQSVSSYLAWYQQKPGQAPRLLIYDASNRATGIPARFSGSGSGTDFTLTISSLEPEDFAVYYCQQSSNWPRTFGQGTKVEIK
 |  |  |  | < 0.001 | < 1e-07 | 198000 | ~0.08 | ~0.003 | ~0.07 | no binding (tested: 10 µg/ml) |  |  |  | mouse-human chimeric antibody AB12M2 (antibody, V domains shown) VH: EVKLVESGGGLVKPGGSLKLSCAASGFTFSSYGMSWVRQTPEKRLEWVATISGGGRDTYYPDSVKGRFTISRDNAKNNLYLQMSSLRSEDTALYYCARQKDTSWFVHWGQGTLVTVSA VL: not shown
 |  |  |  | < 0.001 | < 1e-07 | 226000 | ~0.1 | ~0.003 | ~0.09 | no binding (tested: 10 µg/ml) | ~0.8 | ~1 | 0.114 | humanized antibody AB12M3 (antibody, V domains shown, the description speaks of human IgG4 or IgG1 and human kappa only as embodiments) VH: EVQLVESGGGLVQPGGSLRLSCAASGFTFSSYGMSWVRQAPGKGLEWVATISGGGRDTYYPDSVKGRFTISRDNAKNNLYLQMNSLRAEDTALYYCARQKDTSWFVHWGQGTLVTVSS VL: EIVLTQSPATLSLSPGERATLSCRASESVDDYGISFMNWFQQKPGQAPKLLIYVASNQGSGVPARFSGSGSGTDFSLTISSLEPDDTAMYFCQQSKEVPWTFGGGTKVEIK
 |  |  |  | < 0.001 | < 1e-07 | 213000 | ~0.1 | ~0.003 | ~0.09 | no binding (tested: 10 µg/ml) |  | ~1 | 0.096 | humanized antibody AB12M4 (antibody, V domains shown) VH: EVKLVESGGGLVKPGGSLRLSCAASGFTFSSYGMSWVRQTPEKRLEWVATISGGGRDTYYPDSVKGRFTISRDNAKNNLYLQMSSLRSEDTALYYCARQKDTSWFVHWGQGTLVTVSA VL: not shown
